Experimental data from publication PMC9352346.

Tests used:
GST-Smad4, Q13485 = target: T1, GST-Smad4, Q13485; assay: GST pull-down, immunoblot band quantification; settings: chain shown with the change; HEK293T cell lysate; n=3; read off a plot
T1 chain: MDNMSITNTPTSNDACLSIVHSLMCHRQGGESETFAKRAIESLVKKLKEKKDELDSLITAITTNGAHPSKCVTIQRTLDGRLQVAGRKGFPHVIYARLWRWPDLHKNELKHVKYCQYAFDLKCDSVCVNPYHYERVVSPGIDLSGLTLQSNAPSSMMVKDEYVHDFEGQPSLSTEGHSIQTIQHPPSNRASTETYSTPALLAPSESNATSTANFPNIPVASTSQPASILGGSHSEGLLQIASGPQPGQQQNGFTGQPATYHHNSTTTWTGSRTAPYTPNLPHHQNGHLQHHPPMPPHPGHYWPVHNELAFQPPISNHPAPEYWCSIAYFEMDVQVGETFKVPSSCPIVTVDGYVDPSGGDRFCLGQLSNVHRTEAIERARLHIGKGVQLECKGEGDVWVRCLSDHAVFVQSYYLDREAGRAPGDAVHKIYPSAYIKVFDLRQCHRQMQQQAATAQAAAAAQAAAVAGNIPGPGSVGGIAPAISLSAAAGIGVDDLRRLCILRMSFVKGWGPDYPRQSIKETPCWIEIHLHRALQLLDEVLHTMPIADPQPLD

GST-Smad4-MH2, Q13485 = target: T2, GST-Smad4-MH2, Q13485; assay: GST pull-down, immunoblot band quantification; settings: chain shown with the change; HEK293T cell lysate; n=3; read off a plot
T2 chain: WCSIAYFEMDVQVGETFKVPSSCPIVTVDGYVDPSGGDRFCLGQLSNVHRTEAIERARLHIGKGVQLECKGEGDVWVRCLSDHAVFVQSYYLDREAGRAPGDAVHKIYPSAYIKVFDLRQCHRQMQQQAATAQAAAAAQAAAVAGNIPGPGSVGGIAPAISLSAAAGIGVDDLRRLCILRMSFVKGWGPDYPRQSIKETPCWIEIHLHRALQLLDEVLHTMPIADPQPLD

B1: Arl15-WT-GFP A86L (protein)
chain: MSDLRITEAFLYMDYLCFRALCCKGPPPARPEYDLVCIGLTGSGKTSLLSKLCSESPDNVVSTTGFSIKAVPFQNAILNVKELGGLDNIRKYWSRYYQGSQGVIFVLDSASSEDDLEAARNELHSALQHPQLCTLPFLILANHQDKPAARSVQEIKKYFELEPLARGKRWILQPCSLDDMDALKDSFSQLINLLEEKDHEAVRM
other: relative amount of Arl15-AL-GFP pulled down (GST-Smad4, Q13485): 1
other: relative amount of Arl15-AL-GFP pulled down (GST-Smad4-MH2, Q13485): 0.55
